How the values were obtained:
Type in all cases: cell-based
human GLP-1 receptor [1] = target: T1, human GLP-1 receptor (Homo sapiens, UniProt P43220, L260F); assay: GLP-1 antagonist activity in CHO cells expressing human GLP-1 receptor, GLP-1 added after culture; conditions: 3 hours culture, then 10^-11 M GLP-1; FIG. 27
T1 construct: The human GLP-1 receptor (GLP-1R) cDNA cloned in pUC18 was recloned into a pCIneo vector to prepare pCIneoGLP-1R; expressed in transfected cells; host or cells: CHO cell lines, transient transfection with FuGENE6, then frozen
T1 sequence (P43220 24-463 L260F): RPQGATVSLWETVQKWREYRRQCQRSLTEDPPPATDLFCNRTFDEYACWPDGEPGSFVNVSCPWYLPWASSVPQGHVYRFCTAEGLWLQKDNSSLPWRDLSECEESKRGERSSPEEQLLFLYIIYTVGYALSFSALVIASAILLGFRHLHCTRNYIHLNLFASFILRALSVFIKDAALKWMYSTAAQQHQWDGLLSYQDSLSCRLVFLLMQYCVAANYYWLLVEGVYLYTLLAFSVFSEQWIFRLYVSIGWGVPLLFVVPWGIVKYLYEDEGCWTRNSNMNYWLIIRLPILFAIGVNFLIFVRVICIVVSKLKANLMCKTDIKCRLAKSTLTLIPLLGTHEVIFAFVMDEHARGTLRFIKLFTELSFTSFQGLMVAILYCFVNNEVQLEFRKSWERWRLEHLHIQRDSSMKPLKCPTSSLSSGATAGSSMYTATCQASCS
Protocol: (§1) Next, the activity of a GLP-1 antagonist was measured. 1 ml (3×10^6 cells/ml) of the frozen cells prepared in 1 was thawed in a warm bath and suspended in 10 mL of a washing buffer. The suspension was centrifuged at 1000 rpm for 5 minutes. 12 mL of a culture buffer was added to the obtained precipitate, and 6 μL of 4 mM ViviRen was added thereto. The mixture was seeded at 90 μL/well into a 96-well plate.
Exendin-4 (9-39) was added thereto at 10 μL/well, and the cells were cultured for 3 hours. 10^−11 M GLP-1 was added thereto at 10 μL/well, and the amount of luminescence was measured using a luminometer.

human GLP-1 receptor [2] = target: T1, human GLP-1 receptor; assay: Aequorin luminescence in frozen CHO cell lines expressing human GLP-1 receptor, modified CNG channel and modified aequorin; conditions: even at a concentration 1 million times higher compared with the active forms of GLP-1; FIG. 24
Protocol: 1 ml (3×10^6 cells/ml) of the frozen cells prepared in 1 was thawed in a warm bath and suspended in 10 mL of a washing buffer.
1 ml (3×10^6 cells/ml) of the frozen cells prepared in 1 was thawed in a warm bath and suspended in 10 mL of a washing buffer. The suspension was centrifuged at 1000 rpm for 5 minutes. 12 mL of a culture buffer was added to the obtained precipitate, and 6 μL of 4 mM ViviRen was added thereto.

human V2R = target: T2, human V2R (Homo sapiens, UniProt P30518); assay: Detection of AVP and V2R antagonist by desensitization (calcium-containing medium, addition of AVP, then forskolin)
T2 construct: The human vasopressin receptor isoform 2 (V2R) cDNA cloned in pUC18 was recloned into a pEF2 vector to prepare pEFhV2R; expressed in transfected cells; host or cells: CHO cells, transient transfection with FuGENE6, then frozen
T2 sequence (P30518 1-309 isoform P30518-2): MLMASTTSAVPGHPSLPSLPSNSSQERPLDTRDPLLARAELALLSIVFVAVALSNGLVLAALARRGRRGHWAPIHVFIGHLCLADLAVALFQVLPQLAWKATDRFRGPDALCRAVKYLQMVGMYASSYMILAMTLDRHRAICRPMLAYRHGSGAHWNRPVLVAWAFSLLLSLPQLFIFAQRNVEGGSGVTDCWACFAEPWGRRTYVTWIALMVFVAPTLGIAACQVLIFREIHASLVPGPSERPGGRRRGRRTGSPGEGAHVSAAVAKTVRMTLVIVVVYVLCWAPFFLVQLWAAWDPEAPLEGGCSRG
Description: This method utilizes the desensitization of the cAMP dependent calcium channel to detect the activity of a V2R antagonist. […] In this state, the addition of forskolin that activates adenylate cyclase forms cAMP, which in turn activates the cAMP dependent calcium channel (e.g., CNG calcium). Thus, the calcium sensitive protein emits luminescence. […] In this state, the subsequent addition of […] desensitizes the once activated cAMP dependent calcium channel, which is no longer activated by the addition of forskolin.
as §1, with “1” for “Next, the activity of a GLP-1 antagonist was measured. 1”, “50” for “90”, “plate. […] Subsequently, 10^−4 M forskolin was further added thereto at 50 μL/well, and the amount of luminescence was measured using a luminometer (FIG. 16).” for “plate.”

Row | Compound | reactivity of the kit (human GLP-1 receptor [2]) | further results
1 | exendin-4 (9-39): GLP-1 receptor antagonist |  | inhibition of the agonistic action of added GLP-1 (human GLP-1 receptor [1]): inhibited the agonistic action of added GLP-1 in a concentration dependent manner
2 | GLP-2: incretin acting on other receptors | hardly reacted | 
3 | GLP-1 (9-36 amide) | hardly reacted | 
4 | Cc1ccccc1C(=O)Nc1ccc(C(=O)N2CCCC(O)c3cc(Cl)ccc32)c(C)c1 (stereo not drawn) [OPC-41061] |  | luminescence of forskolin after antagonist and AVP (human V2R; 10^-7 M AVP, then 10^-4 M forskolin, FIG. 16): the luminescence of forskolin was detected in a concentration dependent manner; inhibition of the action of added AVP (amount of luminescence) (human V2R; cells cultured 3 hours with compound in calcium-containing medium, then 10^-7 M AVP, FIG. 14): inhibited the action of added AVP in a concentration dependent manner
5 | GIP: incretin acting on other receptors | hardly reacted | 
